Measurements taken from patent US8722052B2, “Vaccinia virus protein A46 peptide and use thereof” (priority 2008, dated 2014).

Tests used:
TLR3 = biological target: T1, TLR3 (Mus musculus, UniProt Q99MB1); experiment: poly(I:C)-induced TNFα in RAW264.7 cells, ELISA; assay type: cell-based, murine; settings: peptide 5, 20 or 50 μM, 25 μg/ml Poly(I:C), 24 h
T1 construct: endogenous in cells; host or cells: RAW264.7
Protocol: FIGS. 10A and B are bar charts showing the effect of A464 on poly(I:C)-induced TNFα in murine RAW264.7 cells. Cells were seeded in 96 well plates (1.5×10^5 cells/nil) 24 hours before treatment. […] Supernatants were collected 24 hours after stimulation and assayed for TNFα by ELISA (A) and cells were assayed for viability by the MTT assay (B). No peptides were added to the control wells (black bars). Data is representative of at least three experiments each performed in triplicate and is expressed as mean±s.d;
Cytokine and chemokine production from cells or mouse serum was measured by ELISA using Duoset kits from R&D systems, according to the manufacturer's instructions.
In order to determine whether A464 (SEQ ID No. 20) was specific for TLR4, other TLR pathways were next assayed for sensitivity to A464 (SEQ ID No. 20). A scrambled version of A464 (SEQ ID No. 20) peptide was designed to use as a further control peptide, and this had the sequence: […] (ConA464, SEQ ID No. 32). The A464R (SEQ ID No. 20) and ConA464 (SEQ ID No. 32) peptides were assayed for inhibition of TLR2 signalling in THP-1 cells. Pam3CysK4 (S-(2,3-bis(palmitoyloxy)-(2-RS)-propyl)-N-palmitoyl-(R)-Cys-(S)-Ser-(S)-Lys(4)) is a synthetic tripalmitoylated lipopeptide that is recognized by a TLR2/TLR1 heterodimer and leads to activation of NFκB through a Mal- and MyD88-dependent pathway. […]

PBMCs = experiment: MTT cell viability assay, PBMC; assay type: cell-based, human; settings: peptide 1, 5 and 25 μM
Protocol: FIGS. 13A and B are bar charts showing the effect of A467 and A464 on LPS-induced TNFα production and on cell viability in primary human cells. Peripheral blood mononuclear cells (PBMCs) were seeded in 96 well plates (1 ×10^6 cells/ml) 24 hours before treatment. A467 (SEQ ID NO. 23) and A464 (SEQ ID NO. 20) were added to the cells at 1, 5 and 25 μM 1 hour before stimulating with 10 ng/ml LPS. The peptides were added into the unstimulated control wells at 25 μM. Supernatants were collected 6 hours after stimulation and assayed for TNFα production by ELISA (A). The cells were assayed for viability by the MTT assay (B). No peptides were added to the control wells (black bars). Data is representative of at least three experiments each performed in triplicate and is expressed as mean±s.d;
Cell viability was measured by assessing mitochondrial function using an MTT (3-(4,5-Dimethylthiazol-2-yl)-2,5-diphenyltetrazolium bromide) assay. Cells were seeded into 96 well plates and treated with peptides and agonists as described above in relation to the Figs. Wells containing medium only served as a blank control. To terminate treatment of cells, medium was removed and the cells were washed once with PBS. […] MTT was then removed and 200 μl per well of dimethyl sulphoxide (DMSO) was added and cells incubated for 20 min at 37° C. in the dark, prior to absorbance being read at 595 nm on a spectrophotometer.

T1 sequence (Q99MB1 26-905): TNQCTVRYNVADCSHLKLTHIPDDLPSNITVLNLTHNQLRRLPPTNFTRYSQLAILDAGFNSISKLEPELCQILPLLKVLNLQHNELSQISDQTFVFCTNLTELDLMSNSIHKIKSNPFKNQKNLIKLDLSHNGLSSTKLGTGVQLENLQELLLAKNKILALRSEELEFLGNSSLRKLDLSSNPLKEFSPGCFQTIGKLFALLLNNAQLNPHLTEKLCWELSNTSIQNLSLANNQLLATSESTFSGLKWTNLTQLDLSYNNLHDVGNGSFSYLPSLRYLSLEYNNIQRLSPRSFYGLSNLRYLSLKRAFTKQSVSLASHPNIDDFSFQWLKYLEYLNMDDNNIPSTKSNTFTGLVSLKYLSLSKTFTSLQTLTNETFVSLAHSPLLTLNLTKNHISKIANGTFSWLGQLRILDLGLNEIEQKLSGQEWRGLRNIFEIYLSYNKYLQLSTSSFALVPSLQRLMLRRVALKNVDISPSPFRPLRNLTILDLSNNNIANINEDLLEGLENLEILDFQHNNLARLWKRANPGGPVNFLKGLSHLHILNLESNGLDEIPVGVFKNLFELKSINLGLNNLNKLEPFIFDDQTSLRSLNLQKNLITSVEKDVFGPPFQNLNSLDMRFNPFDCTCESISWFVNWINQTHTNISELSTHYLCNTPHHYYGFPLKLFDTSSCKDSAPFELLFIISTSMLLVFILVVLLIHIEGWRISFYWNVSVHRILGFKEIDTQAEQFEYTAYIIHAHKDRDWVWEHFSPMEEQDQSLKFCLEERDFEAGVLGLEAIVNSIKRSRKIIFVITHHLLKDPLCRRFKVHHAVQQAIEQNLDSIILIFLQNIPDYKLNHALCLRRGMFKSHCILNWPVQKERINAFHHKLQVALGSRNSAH

KYSFKLILAEYRRRRRRRRR [Peptide A464]
inhibition of poly(I:C)-induced mTNFα production (TLR3): some inhibition of mTNFα production in response to stimulation with 25 mg/ml Poly(I:C) was seen but only at a concentration of 50 μM | toxicity (MTT) (PBMCs): not toxic
